Measurements as given in patent US20190112375A1 (Bristol-Myers Squibb, published 2019).
Residue numbers refer to the chain shown, from its start. Names and notes keep the numbering of the source.

How the values were obtained:
[1] = molecular target: T1, human TIGIT on cells (human, UniProt Q495A1 22-244); test: cell-based or functional assay
T1 sequence: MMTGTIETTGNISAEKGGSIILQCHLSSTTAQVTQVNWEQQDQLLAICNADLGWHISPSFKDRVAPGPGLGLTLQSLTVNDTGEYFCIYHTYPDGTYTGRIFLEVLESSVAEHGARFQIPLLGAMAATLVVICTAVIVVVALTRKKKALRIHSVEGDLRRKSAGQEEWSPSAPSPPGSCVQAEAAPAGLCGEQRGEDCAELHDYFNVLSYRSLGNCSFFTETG

[2] = molecular target: T2, recombinant human TIGIT (rhTIGIT/Fc) (human, UniProt Q495A1 22-141); test: SPR, mAb captured on anti-kappa chip, rhTIGIT/Fc analyte
T2 construct: also called TIGIT antigen (rhTIGIT/Fc); not shown: Fc part
T2 sequence: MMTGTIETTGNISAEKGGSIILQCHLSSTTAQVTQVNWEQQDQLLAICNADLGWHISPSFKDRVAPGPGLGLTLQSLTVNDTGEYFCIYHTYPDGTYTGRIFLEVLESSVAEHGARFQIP
Procedure: Binding of anti-huTIGIT antibodies to soluble human TIGIT was determined by BIACORE® surface plasmon resonance (SPR) analysis. […] The capture concentration of the mAb/volume was 2-40 μg/mL (5 μL at 10 μL/min). The antigen association time was 5 minutes at 15 μL/min, the antigen dissociation time was 6 minutes, and regeneration was performed with 50 mM HCl/50 mM NaOH (12 μL each at 100 μL/min).

[3] = molecular target: T3, human TIGIT (soluble, SPR; construct not stated) (human, UniProt Q495A1 22-141, limits assumed); test: SPR, full titration curves, subcloned and purified antibody
T3 construct: whole entry named; also called huTIGIT
T3 sequence: T2 sequence

[4] = molecular target: T4, cynomolgus monkey TIGIT (cynomolgus monkey); test: SPR
T4 construct: also called cyno TIGIT

[5] = molecular target: T3, human TIGIT (soluble, SPR; construct …); test: SPR
[6] = molecular target: T5, cynomolgus monkey TIGIT on cells (cynomolgus monkey, UniProt A0A7N9I9V4 89-312); test: method not stated; follows the sentence on TIGIT expressed on CHO cells; monkey TIGIT; KD, method not stated
T5 construct: whole, on cells; also called TIGIT from cynomolgus monkeys expressed on CHO cells; cyno TIGIT on primary cells

[7] = molecular target: T5, cynomolgus monkey TIGIT on cells; test: binding to monkey CD8+ T cells; monkey CD8+ T cells; upper end of the range
[8] = molecular target: T6, huTIGIT-muFc fusion protein (human; mouse, UniProt Q495A1 22-141); test: blockade of TIGIT-mFc (at its EC90, 14.1 nM) binding to P815 cells over-expressing human PVR; competitor: human PVR; P815 cells over-expressing human PVR; TIGIT-mFc at EC90 14.1 nM
T6 construct: also called TIGIT-mFc; not shown: mouse IgG2a Fc, at the C-terminus of the TIGIT part
T6 sequence: T2 sequence

[9] = molecular target: T3, human TIGIT (soluble, SPR; construct …); test: SPR; remark: listed apart in the source
[10] = molecular target: T1, human TIGIT on cells; test: binding to human CD8+ T cells; human CD8+ T cells
[11] = molecular target: hCD16a-V158 (FcγRIIIA-V158) (human, UniProt P08637 17-208); test: Fcγ receptor binding as % of theoretical maximum response (% Rmax), two lots, two concentrations (10 µM, 1 µM); no negative control shown
[12] = molecular target: T7, hCD32a-H131 (FcγRIIA-H131) (human, UniProt P12318 36-218, limits assumed); test: as above
T7 sequence (looked up): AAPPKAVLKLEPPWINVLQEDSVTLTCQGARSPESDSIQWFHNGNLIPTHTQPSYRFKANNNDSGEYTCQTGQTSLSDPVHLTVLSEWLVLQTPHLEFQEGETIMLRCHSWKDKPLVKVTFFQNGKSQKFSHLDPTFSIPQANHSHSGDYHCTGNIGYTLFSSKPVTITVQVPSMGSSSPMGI

[13] = molecular target: hCD16b-NA2 (FcγRIIIB-NA2) (human, UniProt O75015 17-200, limits assumed); test: as above
[14] = molecular target: T5, cynomolgus monkey TIGIT on cells; test: binding to monkey CD8+ T cells; monkey CD8+ T cells; lower end of the range
[15] = molecular target: T1, human TIGIT on cells; test: method not stated; follows the sentence on TIGIT expressed on CHO cells; human TIGIT; KD, method not stated
[16] = molecular target: T6, huTIGIT-muFc fusion protein; test: blockade of TIGIT-mFc (at its EC90, 12.8 nM) binding to P815 cells over-expressing human Nectin-2; competitor: human Nectin-2; P815 cells over-expressing human Nectin-2; TIGIT-mFc at EC90 12.8 nM

B1: 22G2 (antibody, V domains shown)
VH: QVHLQESGPGLVKPSETLSLTCTVSGGSVSSGIYYWSWIRQPPGKGLEWIGYIYYSGSTNYNPSLKSRVTISVDTSKNQFSLKLSSVTAADTAVYYCARDYYVSGNYYNVDYYFFGVDVWGQGTTVTVSS
VL: EIVLTQSPATLSLSPGERATLSCRASQSVSSYLAWYQQKPGQAPRLLIYDASNRATGIPARFSGSGSGTDFTLTISSLEPEDFAVYYCQQRSNWPPLFTFGPGTKVDIK
notes: fully human mAb from KM mouse hybridoma, kappa light chain; also called anti-huTIGIT mAb 22G2; antibody 22G2
Bioassay of Jurkat/hTIGIT cells, block of PVR signaling, IC50 [1]: 0.21 nM
Kd [2]: 0.17 nM
koff [2]: 0.000403 s⁻¹
kon [2]: 2.37e+06 M⁻¹ s⁻¹
Kd [3]: 0.09 nM
Kd [4]: 0.09 nM
Kd [5]: 0.06 nM

B2: 22G2 IgG1.1f (antibody)
heavy: QVHLQESGPGLVKPSETLSLTCTVSGGSVSSGIYYWSWIRQPPGKGLEWIGYIYYSGSTNYNPSLKSRVTISVDTSKNQFSLKLSSVTAADTAVYYCARDYYVSGNYYNVDYYFFGVDVWGQGTTVTVSSASTKGPSVFPLAPSSKSTSGGTAALGCLVKDYFPEPVTVSWNSGALTSGVHTFPAVLQSSGLYSLSSVVTVPSSSLGTQTYICNVNHKPSNTKVDKRVEPKSCDKTHTCPPCPAPEAEGAPSVFLFPPKPKDTLMISRTPEVTCVVVDVSHEDPEVKFNWYVDGVEVHNAKTKPREEQYNSTYRVVSVLTVLHQDWLNGKEYKCKVSNKALPSSIEKTISKAKGQPREPQVYTLPPSREEMTKNQVSLTCLVKGFYPSDIAVEWESNGQPENNYKTTPPVLDSDGSFFLYSKLTVDKSRWQQGNVFSCSVMHEALHNHYTQKSLSLSPG
light: not shown
notes: effectorless IgG1.1f (L234A, L235E, G237A, A330S, P331S, EU numbering); also called anti-TIGIT mAb 22G2 IgG1.1f; antibody 22G2 IgG1.1f; copies: 2 + 2
Kd [6]: 0.07 nM
EC50 [7]: ≤ 0.58 nM
IC50 [8]: 15.4 nM
Kd [9]: 0.07 nM
koff [9]: 0.00013 s⁻¹
kon [9]: 2e+06 M⁻¹ s⁻¹
EC50 [10]: 0.55 nM
binding result [11]: no binding (tested: 10 µM)
binding result [12]: no binding (tested: 10 µM)
binding result [13]: no binding (tested: 10 µM)
EC50 [14]: ≥ 0.28 nM
Kd [15]: 0.09 nM
IC50 [16]: 5.72 nM

B3: 22G2 H3Q IgG1.1f (antibody)
heavy: B2 heavy with H3Q
light: not shown
notes: kappa constant tied to the 22G2 light chain only by claim 4; also called 22G2 VH domain H3Q, isotype IgG1.1f
Kd [9]: 0.08 nM
koff [9]: 0.00016 s⁻¹
kon [9]: 2e+06 M⁻¹ s⁻¹

B4: 22G2 H3Q IgG1 (antibody)
heavy: B1 VH with H3Q
light: not shown
notes: isotype printed as IgG1 (perhaps IgG1f); kappa constant tied to the 22G2 light chain only by claim 4; also called 22G2 VH domain H3Q, isotype IgG1; not shown: human IgG1 constant region
Kd [9]: 0.16 nM
koff [9]: 0.0003 s⁻¹
kon [9]: 1.9e+06 M⁻¹ s⁻¹

B5: 15A6 (antibody, V domains shown)
VH: QLQLQESGPGLVKPSETLSLTCTVSGGSISSSRYFWGWIRQPPGKGLEWIGYIYYRGSTYYNPSLKSRVTIAVDTSKNQFSLKLSSVTAADTAVYYCASSSAWYFDYWGQGNLVTVSS
VL: not shown
notes: fully human mAb from KM mouse hybridoma, kappa light chain; also called anti-huTIGIT mAb 15A6
Kd [2]: 19.9 nM
koff [2]: 0.00404 s⁻¹
kon [2]: 202000 M⁻¹ s⁻¹
Kd [3]: 1.5 nM

B6: 11G11 (antibody, V domains shown)
VH: QLQLQESGPGLVKPSETLSLTCTVSGGSISSSSHYWGWIRQPPGKGLEWIGNIFYSGHTYYNPSLKSRVTISVDTSKNQFSLKLSSVTAADTAVYYCARQGLLWFGGLSPYYFDYWGQGTLVTVSS
VL: EIVLTQSPATLSLSPGERATLSCRASQSVSSYLAWYQQKPGQAPRLLIYDASNRATGIPARFSGSGSGTDFTLTISSLEPEDFAVYYCQQRSNWPTFGQGTKLEIK
notes: fully human mAb from KM mouse hybridoma; also called anti-huTIGIT mAb 11G11
Kd [2]: 28.7 nM
koff [2]: 0.00144 s⁻¹
kon [2]: 50300 M⁻¹ s⁻¹

B7: 10D7 (antibody, V domains shown)
VH: QGQLVQSGAEVKKPGSSVKVSCKASGGIFRNYAISWVRQAPGQGLEWMGGIIPFFGTANYAQKFQGRVTITADESTSTAYMELSSLRSEDTAVYYCARGGAAAGTTRYGYYYYGMDVWGQGTTVTVSS
VL: DIQMTQSPSSLSASVGDRVTITCRASQGISSWLAWYQQKPEKAPKSLIYAASSLQSGVPSRFSGSGSGTDFTLTISSLQPEDFATYYCQQYNSYPITFGQGTRLEIK
notes: fully human mAb from KM mouse hybridoma; also called anti-huTIGIT mAb 10D7
Kd [2]: 38.1 nM
koff [2]: 0.00651 s⁻¹
kon [2]: 171000 M⁻¹ s⁻¹

B8: 15A6 IgG1.1f (antibody)
heavy: QLQLQESGPGLVKPSETLSLTCTVSGGSISSSRYFWGWIRQPPGKGLEWIGYIYYRGSTYYNPSLKSRVTIAVDTSKNQFSLKLSSVTAADTAVYYCASSSAWYFDYWGQGNLVTVSSASTKGPSVFPLAPSSKSTSGGTAALGCLVKDYFPEPVTVSWNSGALTSGVHTFPAVLQSSGLYSLSSVVTVPSSSLGTQTYICNVNHKPSNTKVDKRVEPKSCDKTHTCPPCPAPEAEGAPSVFLFPPKPKDTLMISRTPEVTCVVVDVSHEDPEVKFNWYVDGVEVHNAKTKPREEQYNSTYRVVSVLTVLHQDWLNGKEYKCKVSNKALPSSIEKTISKAKGQPREPQVYTLPPSREEMTKNQVSLTCLVKGFYPSDIAVEWESNGQPENNYKTTPPVLDSDGSFFLYSKLTVDKSRWQQGNVFSCSVMHEALHNHYTQKSLSLSPG
VL: not shown
notes: kappa light chain
Kd [9]: 1.5 nM
koff [9]: 0.0016 s⁻¹
kon [9]: 1.1e+06 M⁻¹ s⁻¹

B9: 15A6 A72S & N112T IgG1.1f (antibody)
heavy: B8 heavy with A72S, N112T
VL: not shown
notes: kappa light chain; also called 15A6 VH domain A72S N112T
Kd [9]: 2 nM
koff [9]: 0.002 s⁻¹
kon [9]: 1e+06 M⁻¹ s⁻¹

B10: 15A6 A72S IgG1.1f (antibody)
heavy: B8 heavy with A72S
VL: not shown
notes: kappa light chain; also called 15A6 VH domain A72S
Kd [9]: 1.5 nM
koff [9]: 0.0017 s⁻¹
kon [9]: 1.1e+06 M⁻¹ s⁻¹

B11: 15A6 N112T IgG1.1f (antibody)
heavy: B8 heavy with N112T
VL: not shown
notes: kappa light chain; also called 15A6 VH domain N112T
Kd [9]: 1.7 nM
koff [9]: 0.0019 s⁻¹
kon [9]: 1.1e+06 M⁻¹ s⁻¹
